From the DeepSol protein solubility set

Test: soluble on expression in E. coli; label from the status in PepcDB or PDB records

Soluble on expression in E. coli, not soluble:
MGSDKIHHHHHHMSDTDKQAFLTSVSSKEQVKKVIEPRKVTKCPHCQSTHFVKNGKDCGNQRFLCRDCKKSFVEQTGTILYNTQKDIEVWEKYIHCMIEKYPLRKCAEICKINLATAFTWRHKILDALQNMMNEVELDGIVQADETYSTISYKGHHKNFNLPRPAHKRGTRATKRGISKEQVCVPCGINLDGKSVARISNLGKPSLKNIN
MGSDKIHHHHHHMSDTLRRKQAADHAMRHWVHQSRGPVPIGSDAHKQMFCNMLLDTHNPYKPAVIDWPALRPDALRRLTSLPIWDIAVQTEGRASVRVATFASTVRDPLLRAALELDAAEEARHKVVLSKLVQAYGIRLAPEPAYPAPKDAEWAWMVTGFSECIDSFFAFGLFRSAQRSGYFPPELVETFEPVIQEEGRHILFFANWFGWYWRNLSWWRRPWLFARVAAVWAYLIWERIGIARGIDADGVARDANFPANTAATVGNALNPRELIELCLVENARRMAGYDTRLLRPTIVPRLARFALRFIRK
MGSDKIHHHHHHMSEAMQLTLPKSGSIEAYMQSAYSIPMLTAEKEHDLATRLYNENDLQAAQELIMSHLRFVIHVAKGYSGYGLPHADLVQEGNVGLMKAVKRFNPEVGVRLVSFAVHWIKAEIHEFVLKNWRIVKVATTKAQRKLFFNLRKNKKRLGWFSTEEVNTVAENLGVTTKDVMEMESRMSSHDQAFELSKDDDDNLGSSSFSPAQYLQDKQSDLAVEVENDNWDNHANKRLSTALVTLDERSQDIIKTRWLTEDKTTLQELANKYQISAERVRQLEKNALSKLKNTMVFD
MGSDKIHHHHHHMSEEQKTISISELESMNIKQLYEIAKSLGIPRYTSMRKRDLIFAILKAQTESTGYFFGEGVLEIHPEGFGFLRRIEDNLLPSNDDIYISPSQIRKFNLNTGDIISGVIRKPKEGEKYFAMIKIEAINYRPVEAVNDRVNFDNLTPDYPRERFILETDPKIYSTRLIDLFAPIGKGQRGMIVAPPKAGKTTILKEIANGIAENHPDTIRIILLIDERPEEVTDIRESTNAIVIAAPFDMPPDKQVKVAELTLEMAKRLVEFNYDVVILLDSLTRLARVYNIVVPPSGKLLTGGVDPAALYKPKRFFGAARNTREGGSLTIIATALVETGSKMDEVIFEEFKGTGNMELVLSRQLANKRIFPAINLLLSGTRREELLLDEETLKKVWLLRRMLSAMTEEEGLTLILNKLSETSSNEEFLKLIDKEKARY
MGSDKIHHHHHHMSEIEAQLPVIHFADAKTFETWIAEQGSDCKGLWVKFAKKASGIASITPREALDVALCYGWIDGQRIGSDSDFYLNKYTPRRARSRWSQVNCARATELIAEGRMTPRGLAEVERARTDGRWDAAAPPPSKATVPDDLHDALAQNAAAKMLFDELDSRNRYAILFRIHDAKKSETRAARIEKYVGMLARGETPYPRRKAR
MGSDKIHHHHHHMSEIQLPSQFESFAEARKQGFIAVKNLKEQGKKVAGVFCTYAPVELVLAAGAVPVGLCAFSDETIPEAEKVLPRNLCPLVKSSYGFAITDKCPYMFFSDLMIGETTCDGKKKMYELLGEFKNLHVMQLPQTAAAEASQELWYQEVLRLKDRIEQDFGVTITEEGIKNAIKVKNEERKLLKEFYELSKSCPPPITGAEQLKVLYGSQFKFDPEAKNREIRETIDKVKADQAKGVENVSPAAKRILITGCPLAGVTEKVVRAIEESGGVVVAYENCIGVKPVERLVDETIDPYKALADRYLQIGCSVMTPNPNRLDLLSRLVREFKVDGVVEMTLQACHTYNLETTQIRKHMQKEDMPFISVETDYSTSDAAQLKTRLAAFIEMLS
MGSDKIHHHHHHMSELNAQQVVDYLQHHPDFLIQHPELLAQLELQQQAQGATSLVHIQQRQLREHNTLLKNQIASMNKYAAQNEQVYRLFSLCHQQLCSNNDFDALASNLQDIICSNPDISDCRLVKYDTKYAQLVEHRLSNSGHYLGRINQQERDLLFSDTAQSTAIYLIGDINKPIAILAFASNNANHFEPAQDTLFVLDFVVALQSRLLELA
MGSDKIHHHHHHMSESCILFFVKYPEPGKVKTRLGEVVGNDKAAMLYRHFVQDMLQGLARLHADLHICYVPGDADLPEKFKAWLGPQHMFAAQQGLDLGERMKHAMQKAFDDGYDRVVLMGSDIPDYPCELVQKALNDLQHYDAAIGPAFDGGYYLIGFRKDSFCPDVFDGIRWGEADVYQPTVEKMRRARLEVLQLPDWNDVDTVWDLNVLYRTNKNSSFRRSSTYALLRENDALIRQYDIDLPGMAPVEKE
